According to patent US10993912B2, “Carrier-antibody compositions and methods of making and using the same” (MAYO FOUNDATION FOR MEDICAL EDUCATION AND RESEARCH, priority 2014, dated 2021):

Tests used:
ABX [1] = biological target: T1, ABX (Homo sapiens, UniProt P02768); assay: Bio-Layer Interferometry (BLItz) binding assay of antibody and ABX; settings: for dependence of binding affinity to ABX on pH / temperature: pH 3, 5, 7, 9, for BEV also RT, 37° C. and 58° C.
T1 construct: purchased Celgene Corporation, Summit, N.J
Description: The association and dissociation constants were calculated using the BLItz software.

[2] = test system: Daudi human lymphoma cells; assay: Daudi xenograft efficacy in athymic nude mice; assay type: in vivo; settings: ABX 30 mg/kg, rituximab 12 mg/kg
Description: Tumor response was determined at day 7 post-treatment by the percent change in tumor size from the first day of treatment.
(§1) To test tumor efficacy, 1×10^6 A375 human melanoma cells were implanted into the right flank of athymic nude mice (Harlan Sprague Dawley, Indianapolis, Ind.). […] Tumor size was monitored 3 times/week and tumor volume was calculated with the following equation: (length*width^2)/2. Mice were sacrificed when the tumor size equaled 10% of the mouse body weight or about 2500 mm^3. The day 7 percent change from baseline was calculated as follows: [(tumor size on treatment day-tumor size on day 7)/tumor size on treatment day]*100.

ABX [3] = biological target: T1, ABX; assay: Binding of cisplatin to ABX, free cisplatin by HPLC; settings: ABX 5 mg/ml, cisplatin 0.5 mg/ml, room temperature 30 minutes
[4] = test system: A375 human melanoma cells; assay: A375 xenograft, pretreatment with BEV before AB160; assay type: in vivo, athymic nude mice; settings: 12 mg/kg dose
Description: Data is represented at day 7-post and 10-day treatment as tumor volume in mm^3.
Data is represented at day 7-post and day 10-post treatment as tumor volume in mm^3. F 11A-E track tumor size over 10 days. […] See also FIG. 11F and FIG. 11G.

[5] = test system: A375 human melanoma cells; assay: A375 xenograft efficacy in athymic nude mice; assay type: in vivo; settings: Example 5; ABX 30 mg/kg, BEV 12 mg/kg, tumors about 700 mm^3 at treatment
Description: Tumor response was determined at day 7 post-treatment by the percent change in tumor size from the day of treatment.
In vivo experiments were performed at least 2 times. The number of mice required for those experiments was determined by power analysis. Mouse tumors were measured 2-3 times/week and mice were sacrificed when the tumor was 10% by weight. […] The end point of the mouse studies was median survival. Kaplan-Meier curves were generated and Mantle-Cox test was performed to determine significance of median survival between treatment groups. The in vitro results presented are representative of at least 5 repeated experiments. Statistical analyses of in vitro and in vivo percent change from baseline experiments were done using the Student's t-test.
as §1

rituximab
binding affinity to ABX (in words) (ABX [1]): picomolar range
dependence of binding affinity to ABX on pH / temperature (ABX [1]): decreased with higher pH
median survival [2]: 12 days

N.N.[Cl][Pt][Cl] [cisplatin]
cisplatin remaining in the supernatant (ABX [3]): 40%

bevacizumab
therapeutic effect of BEV alone [4]: not therapeutic
binding affinity to ABX (in words) (ABX [1]): picomolar range
dependence of binding affinity to ABX on pH / temperature (ABX [1]): highest binding affinity observed when the particles are formed at pH 5 and 58 °C
median survival [5]: 14 days
